Patent US10864252B2, “Anti-SSX-2 T cell receptors and related materials and methods of use” (The United States of America, as represented by the …, priority 2010, dated 2020)

Legend:
[1] = system: COS-A2-SSX-2 cells; test: Proliferation ([3H]-thymidine) on co-culture with COS-A2-SSX-2 cells; assay type: cell-based; details: PBL from Donor 1 or Donor 2; FIGS. 6A, 6B
Description: PBLs from Donor 1 or Donor 2 that were untransduced (UT) or transduced with a vector comprising SEQ ID NO: 27 (SSX-2 TCR), SEQ ID NO: 29 (codon-optimized SSX-2 TCR), or SEQ ID NO: 30 (codon-optimized SSX-2 TCR including mouse constant region) were co-cultured with COS-A2-SSX-2 cells. Proliferation in terms of [^3H]-thymidine incorporation (CPM) was measured and is shown in FIG. 6A (Donor 1) and 6B (Donor 2).

[2] = system: 624 mel; test: IFN-γ release, co-culture with 624 melanoma; assay type: cell-based; details: co-cultured with 624 (Melanoma)
Source text: (§1) SSX-2 TCR-transduced PBLs were co-cultured with various tumor cell lines. […] FIGS. 4A and 4B, FIG. 11, and Tables 3 and 4 show additional results of PBLs from human donors that were transduced with the SSX-2 TCR of Example 2 when these PBLs were co-cultured with various tumor cells. PBLs that were untransduced (UT) or transduced with a vector comprising SEQ ID NO: 27 (SSX-2 TCR), SEQ ID NO: 29 (codon-optimized SSX-2 TCR), or SEQ ID NO: 30 (codon-optimized SSX-2 TCR including mouse constant region) were co-cultured with various tumor cell lines. Tables 5 and 6 show the resulting interferon-γ levels (pg/ml) measured with respect to PBL from two different donors.

[3] = system: SKOV3 Ovarian; test: IFN-γ release, co-culture with SKOV3 ovarian; assay type: cell-based; details: co-cultured with SKOV3 (Ovarian)
Source text: as §1

[4] = system: SSX2+/HLA-A2+ target cells; test: Proliferation ([3H]-thymidine) on co-culture with tumor cells; assay type: cell-based; details: 1300 mel, 624 mel, 888 mel, SK mel 37 or COS-A2-SSX-2 cells; FIGS. 9A-9E
Source text: In another experiment, PBLs transduced as described in this example were co-cultured with 1300 mel cells, 624 mel cells, 888 mel cells, SK mel 37 cells, or COS-A2-SSX-2 cells.

[5] = system: COS-A2; test: IFN-γ release, TCR-transduced PBL co-cultured with COS-A2; assay type: cell-based; details: for IFN-γ: human donor PBL co-cultured with COS-A2; for interferon-γ levels: co-cultured with Cos-A2
Source text: as §1

[6] = system: SSX-2; test: Tetramer binding of transduced PBL; details: human donor-derived PBL; CD4 and CD8 cells
[7] = molecular target: T1, SSX-2: 41-49 (KASEKIFYV) peptide (Homo sapiens, UniProt Q16385); test: IFN-γ release, co-culture with T2 cells pulsed with SSX-2: 41-49 peptide; assay type: cell-based
T1 construct: host or cells: T2 cells (peptide-pulsed)
Source text: SSX-2 TCR-transduced PBLs were co-cultured with T2 cells from two human donors, where the T2 cells were pulsed with varying concentrations of the SSX-2: 41-49 (KASEKIFYV) peptide. FIGS. 1A and 1B show the resulting interferon-γ levels (pg/ml) measured. […] The differences between FIGS. 1A and 1B may be due to donor variability.
PBLs that were untransduced (UT) or transduced with a vector comprising SEQ ID NO: 27 (SSX-2 TCR), SEQ ID NO: 29 (codon-optimized SSX-2 TCR), or SEQ ID NO: 30 (codon-optimized SSX-2 TCR including mouse constant region) were co-cultured with T2 cells that were pulsed with an SSX-2 were pulsed with varying concentrations of the SSX-2: 41-49 (KASEKIFYV) (SEQ ID NO: 1) peptide.

B1: SSX2-TCR-WT: HLA-A2 restricted anti-SSX-2 TCR alpha and beta chains encoded by SEQ ID NO: 27, tested as transduced human PBLs (protein)
chain: MSLSSLLKVVTASLWLGPGIAQKITQTQPGMFVQEKEAVTLDCTYDTSDPSYGLFWYKQPSSGEMIFLIYQGSYDQQNATEGRYSLNFQKARKSANLVISASQLGDSAMYFCAMTSGFGNEKLTFGTGTRLTIIPNIQNPDPAVYQLRDSKSSDKSVCLFTDFDSQTNVSQSKDSDVYITDKTVLDMRSMDFKSNSAVAWSNKSDFACANAFNNSIIPEDTFFPSPESSCDVKLVEKSFETDTNLNFQNLSVIGFRILLLKVAGFNLLMTLRLWSSRAKRSGSGATNFSLLKQAGDVEENPGPMGPGLLHWMALCLLGTGHGDAMVIQNPRYQVTQFGKPVTLSCSQTLNHNVMYWYQQKSSQAPKLLFHYYDKDFNNEADTPDNFQSRRPNTSFCFLDIRSPGLGDAAMYLCATSRGQGGQPQHFGDGTRLSILEDLNKVFPPEVAVFEPSEAEISHTQKATLVCLATGFFPDHVELSWWVNGKEVHSGVSTDPQPLKEQPALNDSRYCLSSRLRVSATFWQNPRNHFRCQVQFYGLSENDEWTQDRAKPVTQIVSAEAWGRADCGFTSVSYQQGVLSATILYEILLGKATLYAVLVSALVLMAMVKRKDF
[1]
  proliferation ([3H]-thymidine incorporation): proliferate in response to co-culture with COS-A2-SSX-2 cells
[2]; Table 3
  IFN-γ: 26515 pg/mL
[2]; Table 4
  IFN-γ: 21730 pg/mL
[3]; Table 3
  IFN-γ: 663 pg/mL
[3]; Table 4
  IFN-γ: 610 pg/mL
[4]
  proliferation ([3H]-thymidine incorporation): proliferate in response to co-culture with SSX2+/HLA-A2+ target cells
[5]; Table 3
  IFN-γ: 297 pg/mL
[5]; Table 4
  IFN-γ: 180 pg/mL
[5]; Table 5 donor
  interferon-γ levels: 2839 pg/mL
[5]; Table 6 donor
  interferon-γ levels: 460 pg/mL
[6]
  tetramer binding: tetramer binding
[7]; FIG. 10
  recognition of SSX-2: 41-49 peptide (IFN-γ): recognize SSX-2: 41-49 peptide
[7]; T2 cells from two human donors pulsed with varying peptide concentrations, FIGS. 1A, 1B
  lowest SSX-2: 41-49 peptide concentration recognized (IFN-γ): ≤ 0.01 ng/mL
